Assay results reported in the Immune Epitope Database (IEDB).

Experiments:
HLA-A*02:01 [1] = test: IEDB peptide-MHC binding, purified MHC/competitive/radioactivity; ≥ and ≤ were set here for values at or beyond the usual limits of such assays
HLA-C*14:02 = test: IEDB peptide-MHC binding, purified MHC/direct/fluorescence; filed as Kd, often an IC50 or EC50 that approximates it; ≥ and ≤ were set here for values at or beyond the usual limits of such assays
HLA-A*26:02 = test: IEDB peptide-MHC binding, purified MHC/competitive/fluorescence; filed as Kd, often an IC50 or EC50 that approximates it; ≥ and ≤ were set here for values at or beyond the usual limits of such assays; details: source organism: Orthomarburgvirus marburgense
HLA-A*02:06 = test: as above; details: source organism: Orthomarburgvirus marburgense
HLA-B*27:05 [2] = test: IEDB peptide-MHC binding, purified MHC/direct/fluorescence; filed as Kd, often an IC50 or EC50 that approximates it; ≥ and ≤ were set here for values at or beyond the usual limits of such assays; details: source organism: Lake Victoria marburgvirus - Popp
HLA-B*08:01 = test: as above
HLA-A*03:01 = test: as above; details: source organism: Lake Victoria marburgvirus - Popp
HLA-B*15:17 = test: as above
HLA-B*40:01 [3] = test: as above; details: source organism: Lake Victoria marburgvirus - Popp
HLA-A*02:01 [4] = test: as above
HLA-A*31:01 = test: as above
HLA-A*01:01 = test: as above
HLA-A*26:01 = test: as above; details: source organism: Orthomarburgvirus marburgense
HLA-B*57:01 = test: as above
HLA-B*46:01 [5] = test: as above; details: source organism: Lake Victoria marburgvirus - Popp
HLA-B*07:02 [6] = test: as above; details: source organism: Lake Victoria marburgvirus - Popp
HLA-A*68:02 = test: as above; details: source organism: Lake Victoria marburgvirus - Popp
HLA-B*08:03 = test: as above; details: source organism: Orthomarburgvirus marburgense
HLA-B*58:01 = test: as above
HLA-B*48:01 = test: as above; details: source organism: Lake Victoria marburgvirus - Popp
HLA-B*15:01 [7] = test: as above; details: source organism: Lake Victoria marburgvirus - Popp
HLA-A*11:01 = test: as above
HLA-B*35:01 = test: IEDB peptide-MHC binding, purified MHC/competitive/fluorescence; filed as Kd, often an IC50 or EC50 that approximates it; ≥ and ≤ were set here for values at or beyond the usual limits of such assays; details: source organism: Camelpox virus M-96
HLA-C*03:03 = test: IEDB peptide-MHC binding, purified MHC/direct/fluorescence; filed as Kd, often an IC50 or EC50 that approximates it; ≥ and ≤ were set here for values at or beyond the usual limits of such assays
HLA-C*12:03 = test: as above
HLA-A*02:03 = test: as above; details: source organism: Variola virus
HLA-C*05:01 = test: as above
HLA-A*69:01 = test: as above
HLA-B*27:05 [8] = test: IEDB peptide-MHC binding, purified MHC/competitive/fluorescence; filed as Kd, often an IC50 or EC50 that approximates it; ≥ and ≤ were set here for values at or beyond the usual limits of such assays
HLA-B*07:02 [9] = test: as above
HLA-B*46:01 [10] = test: as above; details: source organism: Vibrio cholerae AM-19226
HLA-A*23:01 = test: IEDB peptide-MHC binding, purified MHC/direct/fluorescence; filed as Kd, often an IC50 or EC50 that approximates it; ≥ and ≤ were set here for values at or beyond the usual limits of such assays; details: source organism: Vibrio cholerae
HLA-C*07:02 = test: as above; details: source organism: Vibrio cholerae AM-19226
HLA-A*24:03 = test: as above; details: source organism: Vibrio cholerae
HLA-C*15:02 = test: as above
HLA-B*39:01 = test: IEDB peptide-MHC binding, purified MHC/competitive/fluorescence; filed as Kd, often an IC50 or EC50 that approximates it; ≥ and ≤ were set here for values at or beyond the usual limits of such assays
HLA-C*06:02 = test: IEDB peptide-MHC binding, purified MHC/direct/fluorescence; filed as Kd, often an IC50 or EC50 that approximates it; ≥ and ≤ were set here for values at or beyond the usual limits of such assays
HLA-B*40:01 [11] = test: IEDB peptide-MHC binding, purified MHC/competitive/fluorescence; filed as Kd, often an IC50 or EC50 that approximates it; ≥ and ≤ were set here for values at or beyond the usual limits of such assays
HLA-B*15:01 [12] = test: as above
HLA-A*30:01 = test: as above; details: source organism: Orthomarburgvirus marburgense
HLA-B*18:01 = test: IEDB peptide-MHC binding, purified MHC/direct/fluorescence; filed as Kd, often an IC50 or EC50 that approximates it; ≥ and ≤ were set here for values at or beyond the usual limits of such assays; details: source organism: Marburg virus - Musoke, Kenya, 1980
HLA-B*45:06 = test: IEDB peptide-MHC binding, purified MHC/competitive/fluorescence; filed as Kd, often an IC50 or EC50 that approximates it; ≥ and ≤ were set here for values at or beyond the usual limits of such assays; details: source organism: Mycobacterium tuberculosis C
HLA-B*15:42 = test: as above; details: source organism: Mycobacterium tuberculosis C
HLA-B*83:01 = test: as above; details: source organism: Mycobacterium tuberculosis C
[13] = source organism: Orthomarburgvirus marburgense
[14] = source organism: Lake Victoria marburgvirus - Popp
[15] = source organism: Camelpox virus M-96
[16] = source organism: Camelpox virus CMS
[17] = source organism: Mycobacterium tuberculosis H37Ra
[18] = source organism: Vibrio cholerae AM-19226
[19] = source organism: Rickettsia massiliae MTU5
[20] = source organism: Escherichia coli O139:H28 str. E24377A
[21] = source organism: Marburg virus - Musoke, Kenya, 1980
[22] = source organism: Pseudomonas aeruginosa

Q: How did the IC50 (HLA-A*02:01 [1]; source organism: Homo sapiens) turn out when VLMAVVLASL was run?
A: Its IC50 is 45.7 nM.

Q: KINIFMAFL was tested. Which Kd (HLA-C*14:02; source organism: Taterapox virus) did it give?
A: Its Kd is ≥ 20000 nM.

Q: With HMTEVVRRC as the sequence, how does the IC50 (HLA-A*02:01 [1]; source organism: Homo sapiens) read?
A: Its IC50 is 10200 nM.

Q: Which Kd (HLA-A*26:02) does the source give for KNYPASLHK here?
A: The Kd was ≥ 20000 nM.

Q: And the Kd (HLA-A*02:06)?
A: Its Kd is 627 nM.

Q: What about the Kd (HLA-B*27:05 [2]) of the same sequence?
A: Its Kd is ≥ 20000 nM.

Q: And the Kd (HLA-B*08:01; [13])?
A: Its Kd is ≥ 20000 nM.

Q: What about the Kd (HLA-A*03:01) of the same sequence?
A: The Kd was 102 nM.

Q: What about the Kd (HLA-B*15:17; [14]) of the same sequence?
A: Its Kd is ≥ 20000 nM.

Q: And the Kd (HLA-B*40:01 [3])?
A: The Kd was ≥ 20000 nM.

Q: And the Kd (HLA-A*02:01 [4]; [14])?
A: Its Kd is ≥ 20000 nM.

Q: What about the Kd (HLA-A*31:01; [14]) of the same sequence?
A: The Kd was ≥ 20000 nM.

Q: And the Kd (HLA-A*01:01; [14])?
A: The Kd was ≥ 20000 nM.

Q: What about the Kd (HLA-A*26:01) of the same sequence?
A: The Kd was ≥ 20000 nM.

Q: What about the Kd (HLA-B*57:01; [14]) of the same sequence?
A: The Kd was ≥ 20000 nM.

Q: What about the Kd (HLA-B*46:01 [5]) of the same sequence?
A: The Kd was ≥ 20000 nM.

Q: What about the Kd (HLA-B*07:02 [6]) of the same sequence?
A: The Kd was ≥ 20000 nM.

Q: What about the Kd (HLA-A*68:02) of the same sequence?
A: Its Kd is ≥ 20000 nM.

Q: And the Kd (HLA-B*08:03)?
A: The Kd was ≥ 20000 nM.

Q: And the Kd (HLA-B*58:01; [14])?
A: The Kd was ≥ 20000 nM.

Q: What about the Kd (HLA-B*48:01) of the same sequence?
A: Its Kd is ≥ 20000 nM.

Q: And the Kd (HLA-B*15:01 [7])?
A: The Kd was ≥ 20000 nM.

Q: And the Kd (HLA-A*11:01; [14])?
A: The Kd was 91.7 nM.

Q: How did the Kd (HLA-B*35:01) turn out when LMDENTYAM was run?
A: The Kd was 0.2 nM.

Q: What about the Kd (HLA-C*03:03; [15]) of the same sequence?
A: Its Kd is 592 nM.

Q: And the Kd (HLA-C*12:03; [15])?
A: Its Kd is ≥ 20000 nM.

Q: What about the Kd (HLA-A*02:01 [4]; [16]) of the same sequence?
A: The Kd was ≤ 1 nM.

Q: And the Kd (HLA-A*02:03)?
A: The Kd was 20 nM.

Q: What about the Kd (HLA-C*05:01; [15]) of the same sequence?
A: Its Kd is 7 nM.

Q: And the Kd (HLA-A*69:01; [16])?
A: The Kd was 57.8 nM.

Q: For FRWTQSLRR, which Kd (HLA-B*27:05 [8]; source organism: Mammarenavirus machupoense) is on record?
A: The Kd was 39.8 nM.

Q: How did the Kd (HLA-B*07:02 [9]; source organism: Influenza A virus (A/duck/England/1/1956(H11N6))) turn out when EIRTFSFQL was run?
A: The Kd was ≥ 20000 nM.

Q: Which IC50 (HLA-A*02:01 [1]; [17]) does the source give for GLIDIAPHQISS here?
A: The IC50 was 173 nM.

Q: How did the IC50 (HLA-A*02:01 [1]; source organism: Rift Valley fever virus) turn out when ILDAHSLYL was run?
A: The IC50 was 1.3 nM.

Q: What does the source list for YALPSAGAF?
A: Kd (HLA-B*46:01 [10]): 34.5 nM; Kd (HLA-C*03:03; [18]): ≤ 1 nM; Kd (HLA-A*23:01): 445 nM; Kd (HLA-C*14:02; [18]): 46 nM; Kd (HLA-C*07:02): 404 nM; Kd (HLA-A*24:03): 290 nM; Kd (HLA-C*15:02; [18]): 386 nM

Q: Which results are given for YQERFVLAL?
A: Kd (HLA-B*27:05 [8]; [17]): 946 nM; Kd (HLA-B*39:01; [17]): 1.7 nM

Q: For FLPVDFFPSI, which IC50 (HLA-A*02:01 [1]; source organism: Hepatitis B virus) is on record?
A: Its IC50 is 35 nM.

Q: Which Kd (HLA-C*12:03; [19]) does the source give for FMRFAFLSM here?
A: Its Kd is 894 nM.

Q: And the Kd (HLA-C*06:02; [19])?
A: Its Kd is ≥ 20000 nM.

Q: And the Kd (HLA-C*15:02; [19])?
A: Its Kd is ≥ 20000 nM.

Q: With YRYSLSSDL as the sequence, how does the Kd (HLA-C*06:02; source organism: Vaccinia virus WR) read?
A: Its Kd is 4 nM.

Q: Which results are given for RQGWARAML?
A: Kd (HLA-B*27:05 [8]; [20]): 191 nM; Kd (HLA-B*39:01; [20]): ≥ 20000 nM; Kd (HLA-B*40:01 [11]; [20]): 313 nM; Kd (HLA-B*15:01 [12]; [20]): 143 nM

Q: Which Kd (HLA-B*07:02 [9]; source organism: Influenza A virus) does the source give for SPYNSRFESV here?
A: The Kd was 3.4 nM.

Q: With GEDAKLIAV as the sequence, how does the Kd (HLA-B*40:01 [11]; source organism: Escherichia coli 536) read?
A: The Kd was 3.8 nM.

Q: Which results are given for QGKQHLHSL?
A: Kd (HLA-A*26:02): ≥ 20000 nM; Kd (HLA-A*30:01): ≥ 20000 nM; Kd (HLA-B*07:02 [9]; [13]): ≥ 20000 nM; Kd (HLA-B*15:01 [12]; [13]): 4000 nM; Kd (HLA-B*08:01; [21]): 212 nM; Kd (HLA-B*15:17; [21]): ≥ 20000 nM; Kd (HLA-A*31:01; [21]): ≥ 20000 nM; Kd (HLA-A*01:01; [21]): ≥ 20000 nM; Kd (HLA-B*57:01; [21]): ≥ 20000 nM; Kd (HLA-B*18:01): ≥ 20000 nM; Kd (HLA-A*69:01; [21]): ≥ 20000 nM; Kd (HLA-B*58:01; [21]): ≥ 20000 nM; Kd (HLA-A*11:01; [21]): ≥ 20000 nM

Q: AYFATPASV was tested. Which Kd (HLA-C*14:02; source organism: Pseudomonas aeruginosa 2192) did it give?
A: Its Kd is ≤ 1 nM.

Q: What about the Kd (HLA-A*02:01 [4]; [22]) of the same sequence?
A: The Kd was 2270 nM.

Q: What about the Kd (HLA-A*31:01; [22]) of the same sequence?
A: The Kd was 207 nM.

Q: What about the Kd (HLA-A*69:01; [22]) of the same sequence?
A: The Kd was 4370 nM.

Q: Which results are given for YPRNGWPAL?
A: Kd (HLA-B*45:06): ≥ 5000 nM; Kd (HLA-B*15:42): ≥ 5000 nM; Kd (HLA-B*83:01): 34.9 nM; Kd (HLA-C*05:01; source organism: Mycobacterium tuberculosis C): ≥ 20000 nM
